Measured values: US20030083294, “Modulators of pharmacological agents” (published 2003)

Molecular target: coagulation factor IXa (FIXa) (Homo sapiens, UniProt P00740;P00740 P00740:47-191,P00740:227-461)
Experiment: KD comparable to 9.3t

B1: 9.20t (ssRNA)
RNA: AUGGGGACUAUACCGGCAAUCGUGCAUCCCCAU
modifications: 2'-F pyrimidines, 2'-OH purines
binding result: binds
